T1: human CD19 protein with a biotinylated AviTag (Acrobiosystems) (human, UniProt P15391 20-291, biotinylated AviTag)
T1 construct: Captured on streptavidin-coated microplate wells; also called biotinylated-AviTag-CD19; hCD19; not shown: AviTag
T1 sequence (looked up): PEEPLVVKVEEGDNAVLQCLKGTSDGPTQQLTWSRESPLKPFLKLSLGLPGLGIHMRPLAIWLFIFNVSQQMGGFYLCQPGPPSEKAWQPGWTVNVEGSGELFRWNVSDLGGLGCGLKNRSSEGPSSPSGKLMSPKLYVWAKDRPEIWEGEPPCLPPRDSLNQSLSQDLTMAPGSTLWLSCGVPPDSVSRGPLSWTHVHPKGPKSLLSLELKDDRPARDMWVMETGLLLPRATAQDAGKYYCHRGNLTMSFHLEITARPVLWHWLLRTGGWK


Target: T1, human CD19 protein with a biotinylated …
Experiment: phage ELISA, biotinylated AviTag CD19 on streptavidin wells; signal ratio to FMC63 standard
Excerpt: To identify unique human CD19-binding monoclonal scFv from the panned libraries, individual phage antibody clones were expanded, assessed for binding to CD19 by ELISA, and subjected to nucleotide sequencing to identify those clones that were unique. A total of 84 scFvs were randomly selected from the panned libraries (70 from P3 and 14 from P4).

Row | Binder | ELISA hCD19 (ratio FMC63)
1 | scFv 8 (scFv, Canine scFv (VL-linker-VH); also called scFv_08; P3-16) scFv: QSVLTQPASVSGSLGQKVTISCTGSRSNIGANYVGWYQQVPGIGPRTVIFGYNYRPSGVPDRFSSSKSGNSATLTISGLQAEDEAEYYCSSWDDSLRGTVFGSGTQLTVLGGGSSRSSSSGDGGSGGGGEVQLVESGGDLVKPGESLRLSCVASGFTFSSYGMSWVRQSPGKGLQWVADISYGGGTYYADAVKGRFTISRDNARNTVYLQMNSLRAEDTAVYYCASQWGDWGHFEYWGQGTLVTVSSASTTAPSVTSGQAGQHHHHHHGAYPYDVPDYAS | 0.41 ratio to FMC63
2 | scFv 7 (scFv, Canine scFv (VL-linker-VH); also called scFv_07; P3-47) scFv: SYELTQPPSMSAALGQRVTISCTGSNTNIGSGYDVQWYQQVPGKSPTPLIYGNTNRPSGVPVRFSGSKSGNTATLTITGIQAEDEADYYCQSYDDNFDGHHVFGSGTQLTVLGGGSSRSSSSGGGGSGGGGEVQLVESGGDLVKPAGSLRLSCVASGFTFSNYGMNWVRQAPGKGLQWVAGINSGGSTTTYADVVKGRFTISRDNAKNTLYLQMNSLGAEDTAVYYCARVDYSSSWLVDYWGQGTLVTVSSASTTAPSVTSGQAGQHHHHHHGAYPYDVPDYAS | 0.83 ratio to FMC63
3 | scFv 5 (scFv, Canine scFv (VL-linker-VH); also called scFv_05; P3-14) scFv: QPVLTQPPSVSGSLGQRVTISCSGSTNTIGVVGANWYQQLPGKSPKLLVYSDGVRPSGVPDRFSGSRSANSDTLTITGLQAEDEADYYCQSFDSTHNAIVFGGGTHLTVLGGGSSRSSSSGGGGSGGGGEVQLVETGGDLVKPAGSLRLSCAASGFPFSGYSMTWVRQAPEKGLQLVAGINSDGSHTYYTDDVKGRFTISRDNTKYILYLQMNSLRAEDTAMYYCGSHSWGNFHYWGQGTLVTVSSESPSPPNLTSGQAGQHHHHHHGAYPYDVPDYAS | 0.48 ratio to FMC63

More lines, now with the values ahead:

Row | ELISA hCD19 (ratio FMC63) | Binder
4 | 0.14 ratio to FMC63 | scFv 42 (scFv, Canine scFv (VL-linker-VH); also called P3-13) scFv: QSVLTQPTSVSGSLGQRVTISCSGSTNDIGIIGAAWYQQLPGKAPKLLLYSNKNRPSGVPDRFSGSNSGISATLTITGLQAEDEADYYCQSVDPALHTYVFGSGTQLTILGGGSSRSSSSGGGGSGGGGEVQLVEIGGDLVKPEGSLRLSCVVSGFTFSGYDMNWVRQAPGKGLQWVAYISSDGRRTVYTDAVKGRFTISRDNAKNTLYLQMNSLKSEDTAVYYCVKGGWLDFWGQGTLVTVSSESPSPPNLTSGQAGQHHHHHHGAYPYDVPDYAS
5 | 0.71 ratio to FMC63 | scFv 9 (scFv, Canine scFv (VL-linker-VH); also called scFv_09; P3-41) scFv: QPVLTQPPSVSAALGQRVTLSCTGSKTNIGSGYDVQWYQQFPGKSPKTIIYGNSNRFSGVPARFSGSKSGSIATLTITGIQAEDEADYYCQSFDDNVDGYVFGSGTQLTILGGGSSRSSSSGGGGSGGGGEVQLVESGGDLVKPGGSLRLSCVASGFTFSSDSIHWVRQAPGKGLQWVAYINSGGSTTYYADAVKGRFTISRDNARNTVYLKMNSLRAEDTAVYYCAKDSGFGSWYLESWGQGTLVTVSPASTTAPSVTSGQAGQHHHHHHGAYPYDVPDYAS
6 | 0.57 ratio to FMC63 | scFv 43 (scFv, Canine scFv (VL-linker-VH); also called P3-02; P3-19) scFv: DIVMTQNPLSLAVTPGELATISCRASQSLLHSDGKSYLNWYLQKPGQTPRPLIYEASRRFSGVSDRFNGSGSGTDFTLKISRVEAEDVGVYYCQQGLHFPPTFGAGTKVELKGGSSRSSSSGGGGSGGGGEVQLVESGGDLVKPGGSLRLSCAASGFTFTDYDMSWVRQAPGKGLQWVAAISYDGSSTYYTDAVKGRFTISRDNARNTLYLQMSSLRAEDTAMYYCVVSNMNLWGHGTSVFVSSASTTAPSVTSGQAGQHHHHHHGAYPYDVPDYAS
